Km data for one protein are collected here from patent publication US5871948A.

Substrate in the series: NC(=O)c1ccc[n+]([C@@H]2O[C@H](COP(=O)(O)OP(=O)(O)OC[C@H]3O[C@@H](n4cnc5c(N)ncnc54)[C@H](OP(=O)(O)O)[C@@H]3O)[C@@H](O)[C@H]2O)c1
In words: purified protein, by the assay type.

B1: thermostable isocitrate dehydrogenase (iCDH) purified from Sulfolobus acidocaldarius DSM 639, FERM BP-5567 (Sulfolobus acidocaldarius DSM 639) (protein)
chain: MVMLYKEPQDGEPIKFEKGKWVVPNKPIILYIEGDGIGPEITNSAIRVVNKAVEKAYKSSREIKWLEVYAGEKANKITGDRFPKETQDMLLKYRVVLKGPLETPIGKGWKSINVAIRLMLDLYANIRPVKYIEGLESPLKHPEKVDMIIFRENTDDLYRGIEFPYDSEEAKKIRKFLREELKVDIEDDTGIGLKVMSKFKTQRITRLALNYALQNSRKKVTVMHKGNVMKYTEGSFREWAYEVALNEYRDKIVTEEEINRGVNSEGKVILNDRIADNMLQQIIIRPDEYDIILAPNVNGDYISDAAGALIGNIGMLGGANIGDTGGMFEAIHGTAPKYAGKNVANPTGIIKSCELMLYFMGWSEAARLIEKAINESIKQKKVTQDIARYLGITPLGTKEYTDTLVQIMDSF
In the case of B1, the Km stood at 66 µM (other: pH 8.6, 37° C., pH 8.6); 42 µM (other: pH 9.5, 37° C., pH 9.5); 48 µM (other: pH 10.0, 37° C., pH 10.0).

What is called Km is the concentration of substrate that gives half-maximal velocity.
